Laboratory results as given in patent US7037663B2, “Human zona pellucida protein 3 and uses thereof” (Eastern Virginia Medical School, priority 1998, dated 2006).
Like-named read-outs stand apart in the source and are kept apart here.

How the values were obtained:
[1] = test system: sperm-zona pellucida binding; test: Hemizona assay (HZA), competitive inhibition of sperm-zona binding, first series; type: cell-based, human
Excerpt: An inverted, phase-contrast microscope equipped with a micromanipulation system was routinely employed to cut the oocyte into halves to obtain matching hemizonae. Oocytes used in the experiments were obtained from surgically-removed ovarian tissue or discarded from IVF therapy under approval of the Institutional Review Board at Eastern Virginia Medical School. The hemizonae were washed in PBS to completely deplete the cytoplasm. Sperm samples were from healthy fertile donors. A swim-up procedure was applied to obtain motile sperm, which were then adjusted to 0.5 million/ml in Human Tubal Fluid (HTF) supplemented with 0.3% Human Serum Albumin (HSA) for hemizona assay. In one Petri dish, one droplet of 100 ul of sperm suspension was placed as a control. Another droplet of sperm was pre-treated with rhZP3. One hemizona was placed into the control droplet and the matching hemizona was placed in the sperm droplet treated with rhZP3. Five pairs of hemizona were used for each experiment. All dishes were incubated at 37° C., 5% CO2 for 4 hours. Each hemizona was removed and rinsed 15 times in PBS, and transferred to the counting dish. The number of sperm bound to the surface of each hemizona was counted under phase microscopy. The HZI was calculated to evaluate rhZP3-binding activity (competitive inhibition) as follows: number of sperm bound for treatment/number of sperm bound for control×100.

[2] = test system: sperm-zona pellucida binding; test: Competitive hemizona assay (HZA), second series; type: cell-based, human
Protocol: Measurement of sperm-zona pellucida binding-Salt-stored, immature (prophase I) human oocytes were used in the experiments. Oocytes were desalted and microbisected into matching halves (hemizonae) using a micromanipulator (Narishige, Tokyo, Japan) following techniques published elsewhere (10, 11, 19). Control and test sperm droplets (100 μl each of a final dilution of 0.5×10^6 motile sperm/ml 1 hour post-swim-up) were incubated separately under heavy mineral oil (Sigma) with a hemizona from the same matching pair for 4 hours at 37° C. in 5% CO2 in humidified air. After the co-incubation period, the hemizonae were washed to remove loosely attached sperm using a finely drawn glass pipette, and the sperm tightly bound to the outer zona surface were counted under phase microscopy (×200). The hemizona assay index (HZI) was calculated as follows: # of sperm bound for test sample/# of sperm bound for control sample×100. An HZI of 100 indicates no inhibition whereas an HZI of 0 reflects complete inhibition of binding.
Swim up sperm were incubated with rhZP3 (test, at a final concentration of 0, 10, 30, 100, 250, 500 or 2,000 ng/ml of protein) or in culture medium (control) for 30 min under identical conditions. After 30 min, a hemizona was added to the test sperm droplet whereas the matching hemizona from the same pair was added to the control sperm droplet. Three pairs of matching hemizonae were tested per rhZP3 concentration per semen sample in a total of three ejaculates from different donors.
Additional competitive HZAs were performed where the test sperm droplet (rhZP3) was assessed against control sperm droplets of culture medium from non-transfected PA-1 cells (NT). Also, competitive HZAs were carried out where the test sperm droplet (culture medium from non-transfected PA-1 cells, NT) was assayed against sperm culture medium. Three pairs of matching hemizonae were tested per dose per experiment in a total of three different ejaculates. These studies were carried out in order to examine the specificity of the effect of the rhZP3.

B1: rhZP3: recombinant human zona pellucida protein 3 with six-histidine tail, expressed in human ovarian PA-1 cells; secreted glycoprotein of approximately 65 Kd (protein)
chain: QPLWLLQGGASHPETSVQPVLVECQEATLMVMVSKDLFGTGKLIRAADLTLGPEACEPLVSMDTEDVVRFEVGLHECGNSMQVTDDALVYSTFLLHDPRPVGNLSIVRTNRAEIPIECRYPRQGNVSSQAILPTWLPFRTTVFSEEKLTFSLRLMEENWNAEKRSPTFHLGDAAHLQAEIHTGSHVPLRLFVDHCVATPTPDQNASPYHTIVDFHGCLVDGLTDASSAFKVPRPGPDTLQFTVDVFHFANDSRNMIYITCHLKVTLAEQDPDELNKACSFSKPSNSWFPVEGSADICQCCNKGDCGTPSHSRRQPHVMSQWSRSASRNHHHHHH
B1 was tested, and the “inhibition of sperm-ZP binding” value ([1]; 30 ng/ml, sperm pre-incubated 30 min) was “approximately 60%”, the “HZI (Mean ± SEM)” value ([1]; test reagent 30 ng/ml versus control 30 ng/ml NT) was 44.5 (3.6) and the “HZI (Mean ± SEM)” value ([1]; test reagent 30 ng/ml versus control HTF/0.5% HSA, 30 min pre-incubation, 4 h with hemizona) was 43.6 (3.3). For the same molecule, the “concentration range of highest (maximal) inhibition of binding” value [2] was 500 to 2000 ng/mL, the “minimally effective dose, inhibition of binding under HZA conditions” value ([2]; 30 min pre-incubation) was 30 ng/mL and the “highest inhibition of binding” value ([2]; in the range of 500-2,000 ng/ml) was “approximately 70%”. The “concentration range of highest (maximal) inhibition of binding” value ([2]; listed as Recombinant hZP3) was 500-2,000 ng/ml, the “HZI (Hemizona index)” value ([2]; test reagent 30 ng/mL versus 30 ng/mL NT) was 44.5 ± 3.6 and the “HZI (Hemizona index)” value ([2]; test reagent 30 ng/mL versus Ham's F-10/0.5% HSA) was 43.6 ± 3.3. The “HZI (Hemizona index)” value ([2]; test reagent 500 ng/mL versus 500 ng/mL NT) was 41.8 ± 1.9 and the “HZI (Hemizona index)” value ([2]; test reagent 500 ng/mL versus Ham's F-10-0.5% HSA) was 38.0 ± 2.7.
